Blank lines part the entries; values can stand above or below the molecule they belong to. No end group written: not given here.
Key:
[1] = target: T1, Neogenin (full-length, 180 kDa) (chick, UniProt Q90610 1-1443); assay: cell-based or functional assay
T1 construct: Endogenous Neogenin of chick brain membranes, retinal axons and tecta, or Neogenin transfected into HEK293 cells; in Western blots it stood denatured
T1 sequence: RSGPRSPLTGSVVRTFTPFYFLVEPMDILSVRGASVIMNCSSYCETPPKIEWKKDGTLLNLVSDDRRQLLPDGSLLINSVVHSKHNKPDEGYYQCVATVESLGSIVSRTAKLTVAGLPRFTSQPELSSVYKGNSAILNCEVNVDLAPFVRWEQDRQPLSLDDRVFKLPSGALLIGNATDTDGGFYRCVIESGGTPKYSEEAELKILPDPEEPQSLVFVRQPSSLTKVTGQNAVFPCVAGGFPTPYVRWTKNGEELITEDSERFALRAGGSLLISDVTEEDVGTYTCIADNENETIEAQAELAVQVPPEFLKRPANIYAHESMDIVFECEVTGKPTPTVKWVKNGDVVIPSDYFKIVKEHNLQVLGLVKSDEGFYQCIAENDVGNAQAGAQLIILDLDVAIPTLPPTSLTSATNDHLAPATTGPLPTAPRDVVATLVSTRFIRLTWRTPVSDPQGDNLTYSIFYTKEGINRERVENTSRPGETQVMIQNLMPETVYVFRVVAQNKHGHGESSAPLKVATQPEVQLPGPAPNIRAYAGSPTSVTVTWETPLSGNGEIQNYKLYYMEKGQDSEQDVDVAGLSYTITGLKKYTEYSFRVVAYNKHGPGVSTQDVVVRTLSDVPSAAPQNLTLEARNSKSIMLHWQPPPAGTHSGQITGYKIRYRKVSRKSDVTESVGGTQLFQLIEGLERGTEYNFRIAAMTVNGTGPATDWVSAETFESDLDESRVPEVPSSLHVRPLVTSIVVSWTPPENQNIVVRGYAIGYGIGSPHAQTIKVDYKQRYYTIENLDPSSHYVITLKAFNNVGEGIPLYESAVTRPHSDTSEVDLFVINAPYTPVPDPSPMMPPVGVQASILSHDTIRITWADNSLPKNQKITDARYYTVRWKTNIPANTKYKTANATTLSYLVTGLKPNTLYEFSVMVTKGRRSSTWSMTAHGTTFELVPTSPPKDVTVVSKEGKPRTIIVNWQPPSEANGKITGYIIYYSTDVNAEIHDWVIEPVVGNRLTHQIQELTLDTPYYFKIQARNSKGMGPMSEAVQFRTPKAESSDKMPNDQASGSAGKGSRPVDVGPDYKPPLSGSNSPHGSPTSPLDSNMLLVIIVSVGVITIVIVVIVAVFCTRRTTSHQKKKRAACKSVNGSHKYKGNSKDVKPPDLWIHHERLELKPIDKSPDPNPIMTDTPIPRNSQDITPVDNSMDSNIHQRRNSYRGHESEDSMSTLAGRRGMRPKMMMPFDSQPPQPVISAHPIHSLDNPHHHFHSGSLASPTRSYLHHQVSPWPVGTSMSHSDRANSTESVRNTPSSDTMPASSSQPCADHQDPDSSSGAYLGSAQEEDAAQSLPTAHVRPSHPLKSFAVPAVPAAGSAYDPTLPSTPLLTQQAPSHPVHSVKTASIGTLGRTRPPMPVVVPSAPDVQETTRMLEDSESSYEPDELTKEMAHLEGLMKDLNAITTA

[2] = target: T2, 6FNIII-domain of Neogenin fused to alkaline phosphatase (Gallus gallus, UniProt Q90610 429-1036); assay: ELISA with AP fusions of Neogenin domains
T2 construct: also called 6FNIII-AP; fibronectin domain; not shown: alkaline phosphatase (AP)
T2 sequence: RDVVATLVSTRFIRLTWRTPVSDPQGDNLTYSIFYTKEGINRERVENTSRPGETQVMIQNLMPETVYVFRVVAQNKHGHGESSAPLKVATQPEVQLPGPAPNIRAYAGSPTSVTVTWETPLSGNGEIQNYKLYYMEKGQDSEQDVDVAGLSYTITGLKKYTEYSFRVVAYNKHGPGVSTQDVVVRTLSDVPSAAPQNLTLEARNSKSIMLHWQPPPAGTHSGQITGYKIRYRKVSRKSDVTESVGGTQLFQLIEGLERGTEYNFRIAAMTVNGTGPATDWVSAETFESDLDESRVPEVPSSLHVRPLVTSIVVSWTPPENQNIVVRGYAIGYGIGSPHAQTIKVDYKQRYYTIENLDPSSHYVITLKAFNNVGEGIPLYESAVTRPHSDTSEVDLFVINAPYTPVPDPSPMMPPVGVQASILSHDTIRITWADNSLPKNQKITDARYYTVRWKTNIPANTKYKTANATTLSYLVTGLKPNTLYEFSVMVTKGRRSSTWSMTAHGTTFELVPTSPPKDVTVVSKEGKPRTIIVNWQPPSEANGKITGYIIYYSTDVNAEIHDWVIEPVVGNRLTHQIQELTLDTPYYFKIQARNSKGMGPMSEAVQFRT

[3] = target: T3, His-tagged 6FNIII-domain of Neogenin (Gallus gallus, UniProt Q90610 429-1036); assay: complementary plate assay, RGMa peptides fused with AP on coated Neogenin domains (FIG. 9)
T3 construct: also called His-6FNIII; His-FNIII; not shown: His tag
T3 sequence: T2 sequence
Method: (A) Different RGMa-AP proteins were incubated on wells coated with the 4Ig 6FNIII or BSA. […] Data were average±SEM (n=3 independent experiments), *p<0.005. (B) Quantification of a binding assay where 4Ig-AP and 6FNIII-AP proteins were assayed on wells coated with proteins from different RGMa regions. […] C-RGMa proteins and full length RGMa only bound 6FNIII. Data were average±SEM (n=3 independent experiments), *p<0.005. […] Quantification of a binding assay where N-RGMa-AP was assayed on wells coated with proteins DCC-4Ig and Neogenin-4Ig. In this experiment Neogenin-4Ig but not DCC-4Ig interacted with N-Raft-AP. Data were average±SEM (n=4 independent experiments), *p<0.005. (D) Cis-interaction between the 4Ig domain of Neogenin and N-Raft is required for localization of Neogenin in lipid rafts. HEK-293 cells were transfected with Neogenin and RGMa constructs. BMP2 (100 nM) was added to the medium 1 hour before cells were collected. Western blotting was performed following lipid raft fractionation. Flotillin was used as a marker for lipid raft fractions, whereas the transferrin receptor (TfR) was used as a marker for heavy membrane-fractions. Every experiment was repeated twice. […] In the first set of experiments, cells were only transfected with Neogenin. […]

[4] = target: T4, 4Ig-domain of Neogenin fused to alkaline phosphatase (Gallus gallus, UniProt Q90610 1-383); assay: ELISA with AP fusions of Neogenin domains
T4 construct: also called 4Ig-AP; not shown: alkaline phosphatase (AP)
T4 sequence: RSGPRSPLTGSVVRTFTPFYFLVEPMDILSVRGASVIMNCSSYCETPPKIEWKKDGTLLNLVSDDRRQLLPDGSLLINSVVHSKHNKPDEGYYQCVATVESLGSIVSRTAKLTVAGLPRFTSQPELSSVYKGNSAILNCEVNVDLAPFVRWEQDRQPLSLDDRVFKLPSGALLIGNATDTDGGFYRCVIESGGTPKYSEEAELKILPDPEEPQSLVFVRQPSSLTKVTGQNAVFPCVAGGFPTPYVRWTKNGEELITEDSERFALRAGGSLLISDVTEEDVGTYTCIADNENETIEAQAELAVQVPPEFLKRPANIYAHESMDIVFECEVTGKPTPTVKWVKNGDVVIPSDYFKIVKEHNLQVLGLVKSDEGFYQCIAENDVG

[5] = target: T2, 6FNIII-domain of Neogenin fused to …; assay: binding assay, 4Ig-AP and 6FNIII-AP on wells coated with RGMa proteins (FIG. 9B)
[6] = target: T5, His-tagged 4Ig-domain of Neogenin (Gallus gallus, UniProt Q90610 1-383); assay: plate binding assay, AP-tagged fragments on coated His-tagged Neogenin proteins (FIG. 17C)
T5 construct: Secreted from transfected cells, purified on Ni-NTA; also called His-4Ig; Neogenin-4Ig; not shown: 6-His tag at the N-terminus; myc and 6-His tags of the pSectag 2B vector at the C-terminus
T5 sequence: T4 sequence
Method: (§1) Using a 96-well microtiter plate (Corning Incorporated), wells were coated with 100 μl (10 μg/mL) of Poly-L-Lysine at 4° C. overnight. Wells were then washed three times with 100 μl of PBST (+0.02% Tween). 50 μl (2.5 μg/mL) of His-tagged: Full-length Neogenin; 4 Ig Neogenin; and FNIII Neogenin were coated onto each well for 1 hour at 37° C. Following three washes of 100 μl PBST, each well was then blocked with 300 μl of 3% BSA in PBST for 1 hour at 37° C. 50 μl (1.0 μg/mL) AP-tagged: N-RGMa (28-73); N-RGMa (28-54); N-RGMa (40-62); N-RGMa (54-73); N-RGMa (54-62) in 1% BSA+PBST was then added to each well and incubated at 37° C. for 1 hour. Each well was washed thoroughly three times with 100 μl PBST followed by subsequent equilibration of each well with Alkaline Phosphatase (AP) developing buffer (100 mM NaHCO₃, 1 mM MgCl₂). The reaction was developed using AP developing buffer supplemented with, p-nitrophenyl phosphate (pNPP)(Sigma-Aldrich) and allowed to develop until color development. The reaction was stopped with the addition of 50 μl (0.1M) NaOH. The absorbance of each reaction was measured using a microplate autoreader (BIO-TEK Instruments Inc.) at […] wavelength. […]

[7] = target: T5, His-tagged 4Ig-domain of Neogenin; assay: plate binding assay, AP-tagged fragment on coated His-tagged 4Ig-domain (FIG. 17C)
Method: as §1

[8] = target: T1, Neogenin (full-length, 180 kDa); assay: told in a figure legend; assay not named there (peptide also used on beads in the pull-down of FIG. 2B)

intensity correlation quotient (co-localization in growth cones, immunofluorescence) [1]: 0.32
Molecule: RGMa on the cell membrane (from UniProt Q8JG54 150-404) (ligand)

binding result [2]: no binding
B1: N-Raft peptide (amino acids 28-73 of RGMa), His-tagged (peptide)
peptide: SPCKILKCNSEFWAATSGSHHLGAEETPEFCTALRAYAHCTRRTAR
notes: also called N-RGMa^28-73; N-RGMa28-73; not shown: 6-His tag at the N-terminus

binding result [3]: no binding
B2: N-Raft fused with alkaline phosphatase (peptide)
chain: B1 peptide
modifications: cysteine pairing not given here; also: alkaline phosphatase tag, sequence and position not given here
notes: also called N-Raft-AP; N-RGMa-AP; not shown: alkaline phosphatase tag of the Psectag2B-AP plasmid

binding result [4]: no binding
binding result [5]: binds
B3: N-inh peptide (amino acids 77-113 of RGMa), His-tagged (peptide)
peptide: GDLAYHSAVHGIDDLMVQHNCSKDGPTSQPRLRTLPP
notes: not shown: 6-His tag at the N-terminus; myc tag and 6-His tag at the C-terminus

binding result [6]: binds
B4: N-RGMa (54-73aa), AP-tagged (peptide)
chain: TPEFCTALRAYAHCTRRTAR
modifications: cysteine pairing not given here; also: alkaline phosphatase tag, sequence and position not given here
notes: also called N-RGMa (55-73aa); not shown: alkaline phosphatase tag of the Psectag2B-AP plasmid

binding result [6]: binds
B5: N-RGMa (40-62aa), AP-tagged (peptide)
chain: WAATSGSHHLGAEETPEFCTALR
modifications: also: alkaline phosphatase tag, sequence and position not given here
notes: not shown: alkaline phosphatase tag of the Psectag2B-AP plasmid

binding result [7]: no binding (tested: 1.0 µg/mL)
B6: N-RGMa (28-54aa), AP-tagged (peptide)
chain: SPCKILKCNSEFWAATSGSHHLGAEET
modifications: cysteine pairing not given here; also: alkaline phosphatase tag, sequence and position not given here
notes: as for B5

binding result [7]: no binding (tested: 1.0 µg/mL)
B7: N-RGMa (54-62aa), AP-tagged (peptide)
chain: TPEFCTALR
modifications: also: alkaline phosphatase tag, sequence and position not given here
notes: as for B5

binding result [8]: no binding
B8: N-RGMa^50-99 control peptide (amino acid residues 50-99 of RGMa) (peptide)
peptide: GAEETPEFCTALRAYAHCTRRTARTCRGDLAYHSAVHGIDDLMVQHNCSK
notes: not shown: 6-His tag at the N-terminus

— patent publication US20160271230A1 (UNIVERSITY HEALTH NETWORK, published 2016)
